In patent publication US7557190:

Molecular target: T1, Ep-CAM/Fc (recombinant human) (human, UniProt P16422)
T1 chain: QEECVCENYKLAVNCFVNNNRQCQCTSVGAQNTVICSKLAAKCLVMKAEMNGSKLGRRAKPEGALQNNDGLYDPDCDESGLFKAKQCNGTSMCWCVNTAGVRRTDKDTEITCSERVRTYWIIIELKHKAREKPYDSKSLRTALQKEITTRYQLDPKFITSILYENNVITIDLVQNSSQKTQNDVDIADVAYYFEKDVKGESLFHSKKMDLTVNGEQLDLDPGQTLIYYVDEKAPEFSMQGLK
Experiment: SPR

B1: H3.77/L3 (humanized 17-1A) (antibody, V domains shown)
VH: EVQLVESGGGLVQPGGSLRLSCAASGYSFTNYLIEWVRQAPGQGLEWMGVINPGSGGTNYNPSLKSRVTISADKSISTAYMELSSLRSEDTAVYFCARDGPWFAYWGQGTLVTVSS
VL: NIVMTQSPDSLAVSLGERATLSCRASENVVTYVSWYQQKPGQSPQLLIYGASNRYTGVPDRFTGSGSATDFTLTINSLEAEDAATYYCGQGYSYPYTFGGGTKLEIK
Kd: 64.9 nM
